Drawing on article PMC6420652 (2019), this text covers Kd for 35 variants.

Sequences and labels used below:
B1: Clover-AZIN (antizyme inhibitor with an N-terminal Clover tag) [human] / antizyme-mRuby2 (antizyme with a C-terminal mRuby2 tag) [human] (parent complex)
chain 1: MKGFIDDANYSVGLLDEGTNLGNVIDNYVYEHTLTGKNAFFVGDLGKIVKKHSQWQNVVAQIKPFYTVKCNSAPAVLEILAALGTGFACSSKNEMALVQELGVPPENIIYISPCKQVSQIKYAAKVGVNILTCDNEIELKKIARNHPNAKVLLHIATEDNIGGEEGNMKFGTTLKNCRHLLECAKELDVQIIGVKFHVSSACKESQVYVHALSDARCVFDMAGEIGFTMNMLDIGGGFTGTEFQLEEVNHVISPLLDIYFPEGSGVKIISEPGSYYVSSAFTLAVNIIAKKVVENDKFPSGVEKTGSDEPAFMYYMNDGVYGSFASKLSEDLNTIPEVHKKYKEDEPLFTSSLWGPSCDELDQIVESCLLPELNVGDWLIFDNMGADSFHEPSAFNDFQRPAIYYMMSFSDWYEMQDAGITSDSMMKNFFFVPSCIQLSQEDSFSAEA
chain 2: not shown

One assay covers variants of B1. Kind of assay: FRET titration; parent: 24 nM; read off a plot.
Broadly, the Kd is the concentration at which binding is half-saturated. As for chain 1 K69A, the dissociation constant Kd was about 21 nM. chain 1 K92A: the dissociation constant Kd is about 25 nM. Still for that read-out and setting: for chain 1 F395A the value was about 58 nM. As to chain 1 Q119A, the Kd was about 9.6 nM. As for chain 1 E138A, the Kd was about 20 nM. Still for that read-out and setting: for chain 1 L328A the value was about 26 nM; for chain 1 D214A, about 27 nM. Still for that read-out and setting: for chain 1 L361A the value was about 55 nM; for chain 1 R144A, about 10 nM; for chain 1 C114A, about 28 nM. chain 1 E366A: the Kd is about 31 nM. The same measure, in the same setting: for chain 1 E391A the value was about 12 nM; for chain 1 E136A, about 20 nM. Still for that read-out and setting: for chain 1 L139A the value was about 9.3 nM; for chain 1 K141A, about 19 nM; for chain 1 K169A, about 21 nM. Same read-out and setting: for chain 1 F398A the value was about 23 nM; for chain 1 M168A, about 21 nM; for chain 1 S329A, about 24 nM.

Turning to chain 1 N93A, the dissociation constant (Kd) is about 35 nM. Still for that read-out and setting: for chain 1 N396A the value was about 47 nM; for chain 1 Q116A, about 21 nM. Same read-out and setting: for chain 1 D423A the value was about 23 nM; for chain 1 Y321A, about 27 nM.

chain 1 S118A: the Kd is about 15 nM. On the same count and under the same terms, for chain 1 K115A the value was about 23 nM; for chain 1 S91A, about 26 nM. Still for that read-out and setting: for chain 1 F170A the value was about 27 nM; for chain 1 S393A, about 25 nM.

Turning to chain 1 K175A, the dissociation constant (Kd) was about 30 nM. The same measure, in the same setting: for chain 1 D359A the value was about 41 nM. On the same count and under the same terms, for chain 1 S367A the value was about 39 nM; for chain 1 K63A, about 23 nM; for chain 1 D134A, about 18 nM.

Another assay covers variants of B1. Kind of assay: FRET titration; Clover-containing proteins 50 nM; titration of AZ-mRuby2; parent: 22.2 nM.
As to chain 1 S329Y, the Kd worked out at 28.6 nM.
